Data set [1] relates to OC[C@H]1O[C@@](CO)(O[C@H]2O[C@H](CO)[C@@H](O)[C@H](O)[C@H]2O)[C@@H](O)[C@@H]1O. In words: Kinetic parameters towards sucrose donor, double mutant A289P-F290L. It counts as biochemical, Neisseria polysaccharea. The conditions noted are these: other: sucrose donor (0-500 mM), Eadie-Hofstee plot, 30° C., pH 7.0. The protocol:
(§1) The double mutants A289P-F290C, A289P-F290I and A289P-F290L were produced and purified, as previously described in Example 1-1. The protein content was determined by the Nanodrop ND-1000 spectrophotometer. These mutants were tested on sucrose alone or supplemented with α-D-GlcpNAc-OAll acceptor, and compared to wtAS and F290K. Assays were performed at 30° C. in 50 mM Tris-HCl buffer, pH=7.0.
(§2) Enzyme assays were carried out in a total volume of 2 mL containing pure enzyme (0.073 mg, 0.153 mg and 0.092 mg when using A289P-F290C, A289P-F2901 and A289P-F290L, respectively).
(§3) Kinetic studies of AS variants were performed in the presence of sucrose (0-500 mM). At regular time intervals (2-5 min), aliquots (200 μL) were removed, heated (95° C., 2 min) and centrifuged (18000 g, 5 min) All the samples were filtered on a 0.22 μm membrane and analyzed using HPLC material previously described. The initial rate of sucrose consumed, corresponding to the initial rate of fructose released, was expressed in mole of fructose released per minute and per gram of enzyme. The kinetic parameters kcat and Km were calculated using Eadie-Hofstee plot.

Data set [2] relates to Neisseria polysaccharea amylosucrase 1G5A (parent SEQ ID NO: 13) variants A289P-F290C, A289P-F290I and A289P-F290L. In words: Kinetic parameters towards α-D-GlcpNAc-OAll acceptor, the three double mutants stated together. It counts as biochemical. The conditions noted are these: sucrose 250 mM. The protocol: as §1
(§4) Enzyme assays were carried out in a total volume of 2 mL containing pure enzyme (0.037 mg, 0.076 mg and 0.046 mg when using A289P-F290C, A289P-F2901 and A289P-F290L, respectively).
(§5) The kcat/Km (α-D-GlcpNAc-OAll) value was calculated from the initial rate of formation of desired disaccharide (α-D-Glcp-(1→4)-α-D-GlcpNAc-OAll), corresponding to the initial rate of α-D-GlcpNAc-OAll consumed. As saturation was not achieved with the mutants, efficiency was calculated by linear regression analysis of the velocity versus substrate concentration plot.

For data set [3], the system named is OC[C@H]1O[C@@](CO)(O[C@H]2O[C@H](CO)[C@@H](O)[C@H](O)[C@H]2O)[C@@H](O)[C@@H]1O. In words: Kinetic parameters towards sucrose donor, double mutant A289P-F290C. In kind it is biochemical, Neisseria polysaccharea. The conditions noted are these: other: sucrose donor (0-500 mM), Eadie-Hofstee plot, 30° C., pH 7.0. Here is the method:
as §1, §2, §3

The test system is the same in data set [4]. In words: Kinetic parameters towards sucrose donor, double mutant A289P-F290I. In kind it is biochemical, Neisseria polysaccharea. The conditions noted are these: other: sucrose donor (0-500 mM), Eadie-Hofstee plot, 30° C., pH 7.0. The protocol: as §1, §2, §3
The nature of data set [5]: HPLC screening of double-mutant libraries for variants able to glucosylate D-GlcpNAc. It counts as biochemical. As to conditions: α-D-Glcp-(1→4)-α-D-GlcpNAc (ED) from sucrose and D-GlcpNAc, microplate format.
A short description of data set [6]: HPLC screening of the single-mutant amylosucrase library for glucosylation of D-GlcpNAc. In kind it is biochemical. Here is the method:
The protocol was established to enable the rapid identification of clones for which D-GlcpNAc glucosylation was improved. To obtain higher amounts of enzymes and facilitate detection of glucosylated compounds upon HPLC screening, mutants were produced in 96-DeepWell Format plates. Storage microplates containing monomutants were thawed and replicated to inoculate a starter culture in 96-well microplates containing, in each well, 150 μL LB medium supplemented with ampicillin (100 μg/mL). After growth for 24 h at 30° C. under agitation (200 rpm), plates were duplicated into 96-Deep Well plates containing, in each well, 1.1 mL LB medium supplemented with ampicillin (100 μg/mL) and IPTG (1 mM) to induce GST-AS expression. Cultures were then grown for 24 h at 30° C. under agitation (200 rpm). Plates were centrifuged (20 min, 3000 g, 4° C.) and the supernatant was removed. The cell pellet was resuspended in 200 μL of lysozyme (0.5 mg/mL), followed by freezing at −80° C. for 8 to 12 h. After thawing at room temperature, 100 μL of sucrose and 100 μL of acceptor (each at a final concentration of 73 mM) were added to each well. Enzymatic reaction was incubated at 30° C. during 24 h under agitation. The DeepWell plates were then centrifuged (20 min, 3000 g, 4° C.) and 300 μL of the supernatant was transferred to a filter micro-plate (PVDF 0.2 μm) to be clarified. […]
Efficiency of the glucosylation reaction was evaluated by HPLC analysis of the acceptor reaction product synthesized when using D-GlcpNAc as acceptor using a Dionex P 680 series pump, a Shodex RI 101 series refractometer, a Dionex UVD 340 UV/Vis detector and an autosampler HTC PAL. […]
For each of the 7 selected positions, 19 single mutants were generated (corresponding to each possible amino acid change). […] Both sucrose consumption and disaccharide formation were determined in order to calculate the glucosylation rate defined as the molar ratio of monoglucosylated acceptor versus/sucrose consumed.

For data set [7] the following is noted: data from ref. 83, cited from earlier work.
Data set [8] in a line: Kinetic parameters towards α-D-GlcpNAc-OAll acceptor. As to conditions: 250 mM for both sucrose and α-D-GlcpNAc-OAll. In kind it is biochemical. The protocol:
as §4, §5

Data set [9] in a line: Glucosylation of α-D-GlcpNAc-OAll by purified F290D, F290K and ASNPwt (146 mM sucrose + 146 mM acceptor). As to conditions: purified enzyme; Sucrose=Acceptor=146 mM; compared with ASNPwt. In kind it is biochemical. Here is the method: All assays were performed at 30° C. in 50 mM Tris buffer, pH=7.0. For the acceptor reactions, F290D, F290K and ASNPwt (1G5A) were tested on α-D-GlcpNAc-OAll.
Comparison of products synthesized by wild-type and AS variants. Reactions were performed in the presence of 146 mM sucrose alone or supplemented with 146 mM acceptor. The purified wild-type or mutated GST/AS were employed at 0.5 U/mL. The reactions were stopped by heating at 95° C. for 5 min. The final mixture was centrifuged at 18 000 g for 10 min, filtered on 0.22 μm membrane and analyzed by HPLC, as previously described.
Soluble and insoluble oligosaccharides produced during the reaction were identified by HPAEC using a Dionex Carbo-Pack PA100 column at 30° C. Before analysis, the insoluble fraction was solubilized in KOH at a final total sugar concentration of 10 g/kg. Mobile phase (150 mM NaOH) was set at 1 mL/min flow rate with a sodium acetate gradient (going from 6 to 500 mM within 120 min). Detection was performed using a Dionex ED40 module with a gold working electrode and an Ag/AgCl pH reference. Note that α-D-GlcpNAc-OAll (acceptor) and its derivatives are not oxidable products and thus are not detectable by HPAEC. Sucrose, glucose, fructose, α-D-GlcpNAc-OAll (acceptor) and its derivatives (glucosylation products) were quantified by HPLC, as previously described

Some results are limits rather than exact numbers.

These results are taken from patent publication US20110086767A1, “MUTANTS OF GLYCOSIDE HYDROLASES AND USES THEREOF FOR SYNTHESIZING COMPLEX OLIGOSACCHARIDES AND DISACCHARIDE INTERMEDIATES” (Institut Pasteur, priority 2008, published 2011).

The term Km denotes the concentration of substrate that gives half-maximal velocity. In the case of “Neisseria polysaccharea amylosucrase 1G5A (parent SEQ ID NO: 13) variant A289P-F290L (Neisseria polysaccharea; A297P/F298L/G545D)”, the Km in data set [1] was 10.1 mM.
With `C=CCO[C@H]1O[C@H](CO)[C@@H](O)[C@H](O)[C@H]1NC(C)=O` [α-D-GlcpNAc-OAll, allyl 2-acetamido-2-deoxy-α-D-glucopyranoside], in [2] (three double mutants vs F290K), the “increase of catalytic efficiency towards α-D-GlcpNAc-OAll compared to variant F290K” value worked out at 3 fold. Also, in [2] (three double mutants vs wtAS), the “increase of catalytic efficiency towards α-D-GlcpNAc-OAll compared to wtAS” value is reported as no more than 395 fold.
As for “Neisseria polysaccharea amylosucrase 1G5A (parent SEQ ID NO: 13) variant A289P-F290C (Neisseria polysaccharea; A297P/F298C/G545D)”, the Km in [3] came out at 18.9 mM.
On to “Neisseria polysaccharea amylosucrase 1G5A (parent SEQ ID NO: 13) variant A289P-F290I (Neisseria polysaccharea; A297P/F298I/G545D)”, for which, in [4], the Km worked out at 17.2 mM.

B1: wtAS: Wild type glycoside hydrolase: amylosucrase 1G5A from Neisseria polysaccharea, SEQ ID NO: 13 (protein, listed as Neisseria polysaccharea)
chain: SPNSQYLKTRILDIYTPEQRAGIEKSEDWRQFSRRMDTHFPKLMNELDSVYGNNEALLPMLEMLLAQAWQSYSQRNSSLKDIDIARENNPDWILSNKQVGGVCYVDLFAGDLKGLKDKIPYFQELGLTYLHLMPLFKCPEGKSDGGYAVSSYRDVNPALGTIGDLREVIAALHEAGISAVVDFIFNHTSNEHEWAQRCAAGDPLFDNFYYIFPDRRMPDQYDRTLREIFPDQHPGGFSQLEDGRWVWTTFNSFQWDLNYSNPWVFRAMAGEMLFLANLGVDILRMDAVAFIWKQMGTSCENLPQAHALIRAFNAVMRIAAPAVFFKSEAIVHPDQVVQYIGQDECQIGYNPLQMALLWNTLATREVNLLHQALTYRHNLPEHTAWVNYVRSHDDIGWTFADEDAAYLGISGYDHRQFLNRFFVNRFDGSFARGVPFQYNPSTGDCRVSGTAAALVGLAQDDPHAVDRIKLLYSIALSTGGLPLIYLGDEVGTLNDDDWSQDSNKSDDSRWAHRPRYNEALYAQRNDPSTAAGQIYQDLRHMIAVRQSNPRFDGGRLVTFNTNNKHIIGYIRNNALLAFGNFSEYPQTVTAHTLQAMPFKAHDLIGGKTVSLNQDLTLQPYQVMWLEIA
Regarding B1, in data set [5], the “Glusosylation Yield to synthesize ED” value was determined as 2%. Further, the “glucosylation rate (formation of α-D-Glcp-(1→4)-D-GlcpNAc)” value in data set [6] (molar ratio of monoglucosylated acceptor versus sucrose consumed, sucrose and D-GlcpNAc 73 mM each, 30° C., 24 h, microtiter format) worked out at 2%. Moreover, the “V250mM (initial rate of sucrose consumption)” value in [7] (250 mM sucrose) is 900 µmol/min/g. Further, the “behaviour (at high concentration)” value in data set [7] (sucrose donor) was “saturation”. In data set [8], the “V250mM (initial rate of acceptor consumption)” value was determined as 290 µmol/min/g.

B2: F290D: single mutant F290D of N. polysaccharea amylosucrase 1G5A (protein)
chain: SPNSQYLKTRILDIYTPEQRAGIEKSEDWRQFSRRMDTHFPKLMNELDSVYGNNEALLPMLEMLLAQAWQSYSQRNSSLKDIDIARENNPDWILSNKQVGGVCYVDLFAGDLKGLKDKIPYFQELGLTYLHLMPLFKCPEGKSDGGYAVSSYRDVNPALGTIGDLREVIAALHEAGISAVVDFIFNHTSNEHEWAQRCAAGDPLFDNFYYIFPDRRMPDQYDRTLREIFPDQHPGGFSQLEDGRWVWTTFNSFQWDLNYSNPWVFRAMAGEMLFLANLGVDILRMDAVADIWKQMGTSCENLPQAHALIRAFNAVMRIAAPAVFFKSEAIVHPDQVVQYIGQDECQIGYNPLQMALLWNTLATREVNLLHQALTYRHNLPEHTAWVNYVRSHDDIGWTFADEDAAYLGISGYDHRQFLNRFFVNRFDGSFARGVPFQYNPSTGDCRVSGTAAALVGLAQDDPHAVDRIKLLYSIALSTGGLPLIYLGDEVGTLNDDDWSQDSNKSDDSRWAHRPRYNEALYAQRNDPSTAAGQIYQDLRHMIAVRQSNPRFDGGRLVTFNTNNKHIIGYIRNNALLAFGNFSEYPQTVTAHTLQAMPFKAHDLIGGKTVSLNQDLTLQPYQVMWLEIA
For the molecule B2, the “increase of glucosylation rate compared to the wild type” value in data set [6] (acceptor D-GlcpNAc) worked out at 45 fold. In [9], the “times more efficient for α-D-GlcpNAc-OAll glucosylation” value was 10 times and the “times more efficient to form α-D-Glcp-(1→4)-D-GlcpNAc-OAll” value was found to be 20 times.
